# Numbering of substitutions follows the chain as printed.
# B1: scl-Fc fusion protein INS005 (Fc fusion)
# chain: SFVNQHLCGSHLVEALHLVCGERGFAYTDKTEEYPGDVGIVEQCCTSICSLEQLENYCGGEAEDLQVGQVELGGGPGAGSLQPEGSLQGGPSVFLFPPKPKDTLMISRTPEVTCVVVDVSHEDPEVKFNWYVDGVEVHNAKTKPREEQYNSTYRVVSVLTVLHQDWLNGKEYKCKVSNKALPAPIEKTISKAKGQPREPQVYTLPPSRDELTKNQVSLTCLVKGFYPSDIAVEWESNGQPENNYKTTPPVLDSDGSFFLYSKLTVDKSRWQQGNVFSCSVMHEALHNHYTQKSLSLSPGGGGGSAESKYGPPCPPCPA
# B2: scl-Fc fusion protein INS006 (Fc fusion)
# chain: B1 chain with H17E, A26H
# B3: scl-Fc fusion protein INS007 (Fc fusion)
# chain: B1 chain with E32G, E33S, D37G
# B4: scl-Fc fusion protein INS008 (Fc fusion)
# chain: B1 chain with H17E, A26H, E32G, E33S, D37G
# B5: scl-Fc fusion protein INS009 (Fc fusion)
# chain: B1 chain with H17E, A26H, D29P, E32G, E33S, D37G
# B6: scl-Fc fusion protein INS010 (Fc fusion)
# chain: B1 chain with D29P
# B7: scl-Fc fusion protein INS011 (Fc fusion)
# chain: B1 chain with D29P, E32G, E33S, D37G
# B8: scl-Fc fusion protein INS012 (Fc fusion)
# chain: FVNQHLCGSHLVEALHLVCGERGFHYTPKTEEYPGDVGIVEQCCTSICSLSQLEDYCGGEAEDLQVGQVELGGGPGAGSLQPEGSLQGGPSVFLFPPKPKDTLMISRTPEVTCVVVDVSHEDPEVKFNWYVDGVEVHNAKTKPREEQYNSTYRVVSVLTVLHQDWLNGKEYKCKVSNKALPAPIEKTISKAKGQPREPQVYTLPPSRDELTKNQVSLTCLVKGFYPSDIAVEWESNGQPENNYKTTPPVLDSDGSFFLYSKLTVDKSRWQQGNVFSCSVMHEALHNHYTQKSLSLSPGGGGGSAESKYGPPCPPCPA
# B9: scl-Fc fusion protein INS013 (Fc fusion)
# chain: B8 chain with E31G, E32S, D36G
# B10: scl-Fc fusion protein INS002 (Fc fusion)
# chain: FVNQHLCGSHLVEALYLVCGERGFFYTDKTEEYPGDVGIVEQCCTSICSLEQLENYCGGEAEDLQVGQVELGGGPGAGSLQPLALEGSLQGGPSVFLFPPKPKDTLMISRTPEVTCVVVDVSHEDPEVKFNWYVDGVEVHNAKTKPREEQYNSTYRVVSVLTVLHQDWLNGKEYKCKVSNKALPAPIEKTISKAKGQPREPQVYTLPPSRDELTKNQVSLTCLVKGFYPSDIAVEWESNGQPENNYKTTPPVLDSDGSFFLYSKLTVDKSRWQQGNVFSCSVMHEALHNHYTQKSLSLSPGGGGGSAESKYGPPCPPCPA
# B11: scl-Fc fusion protein INS014 (Fc fusion)
# chain: B1 chain with A26H, D29P, E32G, E33S, D37G, E52S, N56D
# B12: scl-Fc fusion protein INS015 (Fc fusion)
# chain: B1 chain with A26H, D29P, E52S
# B13: scl-Fc fusion protein INS016 (Fc fusion)
# chain: B8 chain with E31G, E32S, D36G, D55N
# B14: scl-Fc fusion protein INS017 (Fc fusion)
# chain: B1 chain with A26H, D29P, E32G, E33S, D37G, E52S
# B15: scl-Fc fusion protein INS018 (Fc fusion)
# chain: B8 chain with H16E, E31G, E32S, D36G
# B16: scl-Fc fusion protein INS019 (Fc fusion)
# chain: B1 chain with H17E, A26H, D29P, E32G, E33S, D37G, E52S, N56D
# B17: scl-Fc fusion protein INS020 (Fc fusion)
# chain: B8 chain with H16E, D55N
# B18: scl-Fc fusion protein INS021 (Fc fusion)
# chain: SFVNQHLCGSHLVEALELVCGERGFHYTPKTEEYPGDVGIVEQCCTSICSLSQLENYCGGEAEDLQVGQVELGGGPGAGSLQLALEGSLQGGPSVFLFPPKPKDTLMISRTPEVTCVVVDVSHEDPEVKFNWYVDGVEVHNAKTKPREEQYNSTYRVVSVLTVLHQDWLNGKEYKCKVSNKALPAPIEKTISKAKGQPREPQVYTLPPSRDELTKNQVSLTCLVKGFYPSDIAVEWESNGQPENNYKTTPPVLDSDGSFFLYSKLTVDKSRWQQGNVFSCSVMHEALHNHYTQKSLSLSPGGGGGSAESKYGPPCPPCPA
# Target: human insulin receptor isoform B (human, UniProt P06213 28-1382)
# Assay: cell-based or functional assay
row,Binder,hIR-B-phosphorylation [EC50 nM] mean [nM]
1,B1,522
2,B2,388
3,B3,57.3
4,B4,90
5,B5,94.1
6,B6,501
7,B7,110
8,B8,178
9,B9,57.2
10,B10,22.8
11,B11,47.9
12,B12,56.3
13,B13,58.8
14,B14,36
15,B15,260
16,B16,292
17,B17,185
18,B18,288

# Target: Rat IR (rat, UniProt P15127 27-1383)
# Assay: cell-based or functional assay
# Rat IR, sequence (P15127 27-1383): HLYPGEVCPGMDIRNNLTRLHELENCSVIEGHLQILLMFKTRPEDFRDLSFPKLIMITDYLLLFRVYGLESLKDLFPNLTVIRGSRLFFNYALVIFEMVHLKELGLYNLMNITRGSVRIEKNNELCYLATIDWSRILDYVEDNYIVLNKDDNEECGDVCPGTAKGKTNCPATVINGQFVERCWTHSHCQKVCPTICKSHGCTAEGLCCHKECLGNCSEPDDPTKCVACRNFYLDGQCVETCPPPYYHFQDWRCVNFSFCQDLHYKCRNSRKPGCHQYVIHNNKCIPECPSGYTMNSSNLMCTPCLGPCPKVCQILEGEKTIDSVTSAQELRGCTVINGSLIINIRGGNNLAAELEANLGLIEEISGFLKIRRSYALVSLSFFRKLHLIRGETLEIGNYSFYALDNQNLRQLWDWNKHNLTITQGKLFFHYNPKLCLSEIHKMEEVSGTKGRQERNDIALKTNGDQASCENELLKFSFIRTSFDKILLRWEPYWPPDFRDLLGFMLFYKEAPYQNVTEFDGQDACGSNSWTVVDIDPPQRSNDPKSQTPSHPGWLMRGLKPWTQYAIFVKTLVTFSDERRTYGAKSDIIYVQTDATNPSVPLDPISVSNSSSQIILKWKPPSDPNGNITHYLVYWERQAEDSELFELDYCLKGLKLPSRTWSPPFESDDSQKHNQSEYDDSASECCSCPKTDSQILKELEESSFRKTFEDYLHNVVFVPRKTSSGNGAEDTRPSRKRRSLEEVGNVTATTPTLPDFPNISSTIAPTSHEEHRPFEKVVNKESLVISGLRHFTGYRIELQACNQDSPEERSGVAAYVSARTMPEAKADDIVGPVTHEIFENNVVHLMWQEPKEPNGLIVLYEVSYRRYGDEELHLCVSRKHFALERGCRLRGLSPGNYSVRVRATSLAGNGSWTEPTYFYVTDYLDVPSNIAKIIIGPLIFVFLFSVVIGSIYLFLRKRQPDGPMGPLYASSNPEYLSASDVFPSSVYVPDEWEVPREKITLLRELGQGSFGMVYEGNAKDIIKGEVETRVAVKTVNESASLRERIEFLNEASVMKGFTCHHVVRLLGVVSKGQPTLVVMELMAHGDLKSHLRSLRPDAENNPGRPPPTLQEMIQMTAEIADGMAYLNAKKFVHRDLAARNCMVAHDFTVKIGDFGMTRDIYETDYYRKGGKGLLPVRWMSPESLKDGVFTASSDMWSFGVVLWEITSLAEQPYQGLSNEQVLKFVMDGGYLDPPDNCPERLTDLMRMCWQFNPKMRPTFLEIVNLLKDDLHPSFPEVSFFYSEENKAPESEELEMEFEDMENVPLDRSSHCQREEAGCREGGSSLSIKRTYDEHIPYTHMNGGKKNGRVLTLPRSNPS
row,Binder,Rat IR phosphorylation [EC50 nM] mean [nM]
1,B1,1570
2,B2,286
3,B3,54.8
4,B4,440
5,B5,137
6,B6,390
7,B7,169
8,B8,124
9,B9,23.6
10,B10,32.1
11,B11,92.8
12,B12,95.7
13,B13,85.5
14,B14,53.6
15,B15,233
16,B16,2200
17,B17,247
18,B18,620

# Target: Pig IR (pig, UniProt F1SCL0 28-1382)
# Assay: cell-based or functional assay
row,Binder,Pig IR phosphorylation [EC 50 nM] mean [nM]
1,B1,61.4
2,B2,52.5
3,B3,10.8
4,B4,21.2
5,B5,36.6
6,B6,23.5
7,B7,39.6
8,B8,50.6
9,B9,4.17
10,B10,8.12
11,B11,28.4
12,B12,33.5
13,B13,41.5
14,B14,26.3
15,B15,60
16,B16,43
17,B17,157
18,B18,56.7

# Target: human insulin receptor isoform A (human, UniProt P06213-2 28-1370)
# Assay: cell-based or functional assay
row,Binder,hIR-A phosphorylation [EC50 nM] mean [nM]
1,B1,1510
2,B2,1110
3,B3,82.5
4,B4,1410
5,B5,332
6,B6,1780
7,B7,414
8,B8,466
9,B9,5.58
10,B10,36
11,B11,300
12,B12,211
13,B13,180
14,B14,70.6
15,B15,536
16,B16,666
17,B17,718
18,B18,447

# From patent US20260248892A1 (Sanofi, published 2026)
